Each block holds one binder with its values, some of them ahead of it. Numbered stars: 1 amine (or outer) side, 2 acyl side, 3 side chain; on linkers, the order of the positions; unused ones are H or OH. Bridge positions count the residues as written; N and C are the ends. Side chains are listed from the residue outwards. Ends that are not written are not given here. * marks the point of attachment. C20 diacid = O=C(O)CCCCCCCCCCCCCCCCCCC(=O)*; γGlu = O=C(O)[C@H](CCC(=O)[*:2])N[*:1]; AEEA = NCCOCCOCC(=O)O
Tests used:
rat calcitonin receptor [1] = target: T1, rat calcitonin receptor (rat, UniProt P32214 25-516); assay: ratio of IC50 on rat calcitonin receptor to IC50 on rat amylin receptor (reference m40)
T1 construct: whole, on cells; Membranes of transiently transfected BHK tk'ts 13 cells; also called rCTR; rat calcitonin (a) receptor
T1 sequence (looked up): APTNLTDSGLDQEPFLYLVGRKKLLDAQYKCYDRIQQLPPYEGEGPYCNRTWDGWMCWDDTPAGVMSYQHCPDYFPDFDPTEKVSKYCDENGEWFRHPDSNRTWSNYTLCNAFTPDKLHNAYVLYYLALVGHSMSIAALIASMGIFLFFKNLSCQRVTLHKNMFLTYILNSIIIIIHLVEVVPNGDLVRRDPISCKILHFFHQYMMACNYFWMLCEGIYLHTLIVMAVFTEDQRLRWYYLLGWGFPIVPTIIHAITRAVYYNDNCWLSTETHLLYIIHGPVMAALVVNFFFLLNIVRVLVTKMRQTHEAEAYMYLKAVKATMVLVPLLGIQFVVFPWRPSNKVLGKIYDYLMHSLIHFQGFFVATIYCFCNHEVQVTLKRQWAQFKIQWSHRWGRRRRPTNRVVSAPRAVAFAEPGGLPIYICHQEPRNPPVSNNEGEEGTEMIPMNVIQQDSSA

[2] = target: T2, human calcitonin receptor (human, UniProt P30988 25-474); assay: ratio of IC50 on human calcitonin receptor to IC50 on human amylin receptor (reference m42), SPA competition
T2 construct: whole, on cells; Membranes of stably transfected cells; also called hCTR; hCT
T2 sequence (looked up): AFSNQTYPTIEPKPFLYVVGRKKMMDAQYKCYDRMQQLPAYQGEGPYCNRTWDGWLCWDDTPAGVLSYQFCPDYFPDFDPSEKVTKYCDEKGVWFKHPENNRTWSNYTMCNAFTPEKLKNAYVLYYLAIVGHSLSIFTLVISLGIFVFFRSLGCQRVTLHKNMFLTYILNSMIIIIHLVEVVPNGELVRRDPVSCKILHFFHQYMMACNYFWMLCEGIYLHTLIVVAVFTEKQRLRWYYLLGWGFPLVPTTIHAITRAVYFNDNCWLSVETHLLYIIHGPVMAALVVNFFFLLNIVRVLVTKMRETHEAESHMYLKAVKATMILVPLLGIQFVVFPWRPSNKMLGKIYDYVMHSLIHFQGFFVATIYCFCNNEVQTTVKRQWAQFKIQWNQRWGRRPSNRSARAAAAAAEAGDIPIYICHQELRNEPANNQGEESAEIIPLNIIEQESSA
Experimental: The resulting pellet was resuspended, homogenized and centrifuged (20.000 rpm, 15 min) in a buffer containing 20 mM Na-HEPES and 0.1 mM EDTA (pH 7.4, buffer 2). The resulting pellet was resuspended in buffer 2 and protein concentration was measured (BCA protein Assay, Pierce). The homogenate was kept cold during the whole procedure. The membranes were kept at −80° C. until use. The assay was performed in a 384 well Optiplate (PerkinElmer) in a total volume of 40 ul. Membranes were mixed with SPA beads. Final concentration of membranes 35 ng/μL final and SPA beads was 0.05 mg/well. Test-compounds were dissolved in DMSO and further diluted in assay buffer (50 mM Hepes, pH 7.4, 1 mM CaCl2, 5 mM MgCl₂, 0.1% OA and 0.02% Tween20). […] The final mixture was incubated with shaking at 400 rpm for 120 min at 25° C. prior to centrifugation (1500 rpm, 10 min). Samples were analyzed on TopCounter™ (Packard). The IC₅₀ was calculated using (one site binding competition analysis) GraphPad Prism5 as a measure of receptor affinity.
Membranes were prepared in the following way; the cells were rinsed with PBS and incubated with Versene for approximately 5 min before harvesting. The cells were flushed with PBS and the cell-suspension was centrifuged for 5 min at 1000 rpm. Cells were homogenized (Ultrathurrax) in a buffer containing 20 mM Na-HEPES and 10 mM EDTA (pH 7.4) and centrifuged at 20.000 rpm for 15 min. The resulting pellet was resuspended, homogenized and centrifuged (20.000 rpm, 15 min) in a buffer containing 20 mM Na-HEPES and 0.1 mM EDTA (pH 7.4, buffer 2). The resulting pellet was resuspended in buffer 2 and protein concentration was measured (BCA protein Assay, Pierce). The homogenate was kept cold during the whole procedure. The membranes were kept at −80° C. until use. Assay was performed in a 384 well Optiplate (PerkinElmer) in a total volume of 40 ul. Membranes were mixed with SPA beads.

rat calcitonin receptor [3] = target: T1, rat calcitonin receptor; assay: SPA competition with 125I-calcitonin on membranes of BHK tk'ts 13 cells with rat calcitonin receptor (Assay VIII)
[4] = target: T3, rat amylin receptor (rat calcitonin receptor + rat RAMP 3) (rat, UniProt P32214 25-516; Q9JJ73 23-147); assay: SPA competition with 125I-rat amylin on membranes of BHK tk'ts 13 cells with rat calcitonin receptor + rat RAMP3 (Assay VI)
T3 construct: whole, on cells; Membranes of transiently transfected BHK tk'ts 13 cells; also called rAmylin-R; rat amylin 3(a) receptor
T3 sequence (looked up) 1: T1 sequence (looked up)
T3 sequence (looked up) 2: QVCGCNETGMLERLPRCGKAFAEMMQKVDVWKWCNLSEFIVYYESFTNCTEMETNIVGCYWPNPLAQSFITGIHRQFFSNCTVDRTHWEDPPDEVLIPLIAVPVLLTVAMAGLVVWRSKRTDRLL

B1: N^ε1-[2-[2-[2-(19-carboxynonadecanoylamino)ethoxy]ethoxy]acetyl]-[Arg17,Pro21,Pro27,His34]-h-amylin (peptide)
peptide: K([AEEA-C20 diacid])CNTATCATQRLANFLRHSSPNFGAIPSSTNVGHNTY-NH2
modifications: disulfide 2-7; N-terminus assumed
SMILES: CC[C@H](C)[C@H](NC(=O)[C@H](C)NC(=O)CNC(=O)[C@H](Cc1ccccc1)NC(=O)[C@H](CC(N)=O)NC(=O)[C@@H]1CCCN1C(=O)[C@H](CO)NC(=O)[C@H](CO)NC(=O)[C@H](Cc1c[nH]cn1)NC(=O)[C@H](CCCNC(=N)N)NC(=O)[C@H](CC(C)C)NC(=O)[C@H](Cc1ccccc1)NC(=O)[C@H](CC(N)=O)NC(=O)[C@H](C)NC(=O)[C@H](CC(C)C)NC(=O)[C@H](CCCNC(=N)N)NC(=O)[C@H](CCC(N)=O)NC(=O)[C@@H](NC(=O)[C@H](C)NC(=O)[C@@H]1CSSC[C@H](NC(=O)[C@@H](N)CCCCNC(=O)COCCOCCNC(=O)CCCCCCCCCCCCCCCCCCC(=O)O)C(=O)N[C@@H](CC(N)=O)C(=O)N[C@@H]([C@@H](C)O)C(=O)N[C@@H](C)C(=O)N[C@@H]([C@@H](C)O)C(=O)N1)[C@@H](C)O)C(=O)N1CCC[C@H]1C(=O)N[C@@H](CO)C(=O)N[C@@H](CO)C(=O)N[C@H](C(=O)N[C@@H](CC(N)=O)C(=O)N[C@H](C(=O)NCC(=O)N[C@@H](Cc1c[nH]cn1)C(=O)N[C@@H](CC(N)=O)C(=O)N[C@H](C(=O)N[C@@H](Cc1ccc(O)cc1)C(N)=O)[C@@H](C)O)C(C)C)[C@@H](C)O
notes: Synthetic acylated analogue of human amylin; also called compound 91
- Ratio rCT/rAmylin binding (rat calcitonin receptor [1]): 76.3
- Ratio hCT/hAmylin binding [2]: 101
- IC50 (rat calcitonin receptor [3]): 29.4 nM
- IC50 [4]: 0.386 nM

B2: N^ε1-[2-[2-[2-(19-carboxynonadecanoylamino)ethoxy]ethoxy]acetyl]-[His14,Arg17,Pro21,Pro27]-h-amylin (peptide)
peptide: K([AEEA-C20 diacid])CNTATCATQRLAHFLRHSSPNFGAIPSSTNVGSNTY-NH2
modifications: disulfide 2-7; N-terminus assumed
SMILES: CC[C@H](C)[C@H](NC(=O)[C@H](C)NC(=O)CNC(=O)[C@H](Cc1ccccc1)NC(=O)[C@H](CC(N)=O)NC(=O)[C@@H]1CCCN1C(=O)[C@H](CO)NC(=O)[C@H](CO)NC(=O)[C@H](Cc1c[nH]cn1)NC(=O)[C@H](CCCNC(=N)N)NC(=O)[C@H](CC(C)C)NC(=O)[C@H](Cc1ccccc1)NC(=O)[C@H](Cc1c[nH]cn1)NC(=O)[C@H](C)NC(=O)[C@H](CC(C)C)NC(=O)[C@H](CCCNC(=N)N)NC(=O)[C@H](CCC(N)=O)NC(=O)[C@@H](NC(=O)[C@H](C)NC(=O)[C@@H]1CSSC[C@H](NC(=O)[C@@H](N)CCCCNC(=O)COCCOCCNC(=O)CCCCCCCCCCCCCCCCCCC(=O)O)C(=O)N[C@@H](CC(N)=O)C(=O)N[C@@H]([C@@H](C)O)C(=O)N[C@@H](C)C(=O)N[C@@H]([C@@H](C)O)C(=O)N1)[C@@H](C)O)C(=O)N1CCC[C@H]1C(=O)N[C@@H](CO)C(=O)N[C@@H](CO)C(=O)N[C@H](C(=O)N[C@@H](CC(N)=O)C(=O)N[C@H](C(=O)NCC(=O)N[C@@H](CO)C(=O)N[C@@H](CC(N)=O)C(=O)N[C@H](C(=O)N[C@@H](Cc1ccc(O)cc1)C(N)=O)[C@@H](C)O)C(C)C)[C@@H](C)O
notes: Synthetic acylated analogue of human amylin; also called compound 90
- Ratio rCT/rAmylin binding (rat calcitonin receptor [1]): 74.1
- Ratio hCT/hAmylin binding [2]: 42.2
- IC50 (rat calcitonin receptor [3]): 18.2 nM
- IC50 [4]: 0.246 nM

The remaining lines, values ahead:

- Ratio rCT/rAmylin binding (rat calcitonin receptor [1]): 71.1
- Ratio hCT/hAmylin binding [2]: 104
- IC50 (rat calcitonin receptor [3]): 159 nM
- IC50 [4]: 2.24 nM
B3: N^ε1-[2-[2-[2-[[2-[2-[2-[[(4S)-4-carboxy-4-(19-carboxynonadecanoylamino)butanoyl]amino]ethoxy]ethoxy]acetyl]amino]ethoxy]ethoxy]acetyl]-[Arg17,Pro21,Pro27,His34 … (peptide)
peptide: K([AEEA-AEEA-γGlu-C20 diacid])CNTATCATQRLANFLRHSSPNFGAIPSSTNVGHNTY-NH2
modifications: disulfide 2-7; N-terminus assumed
SMILES: CC[C@H](C)[C@H](NC(=O)[C@H](C)NC(=O)CNC(=O)[C@H](Cc1ccccc1)NC(=O)[C@H](CC(N)=O)NC(=O)[C@@H]1CCCN1C(=O)[C@H](CO)NC(=O)[C@H](CO)NC(=O)[C@H](Cc1c[nH]cn1)NC(=O)[C@H](CCCNC(=N)N)NC(=O)[C@H](CC(C)C)NC(=O)[C@H](Cc1ccccc1)NC(=O)[C@H](CC(N)=O)NC(=O)[C@H](C)NC(=O)[C@H](CC(C)C)NC(=O)[C@H](CCCNC(=N)N)NC(=O)[C@H](CCC(N)=O)NC(=O)[C@@H](NC(=O)[C@H](C)NC(=O)[C@@H]1CSSC[C@H](NC(=O)[C@@H](N)CCCCNC(=O)COCCOCCNC(=O)COCCOCCNC(=O)CC[C@H](NC(=O)CCCCCCCCCCCCCCCCCCC(=O)O)C(=O)O)C(=O)N[C@@H](CC(N)=O)C(=O)N[C@@H]([C@@H](C)O)C(=O)N[C@@H](C)C(=O)N[C@@H]([C@@H](C)O)C(=O)N1)[C@@H](C)O)C(=O)N1CCC[C@H]1C(=O)N[C@@H](CO)C(=O)N[C@@H](CO)C(=O)N[C@H](C(=O)N[C@@H](CC(N)=O)C(=O)N[C@H](C(=O)NCC(=O)N[C@@H](Cc1c[nH]cn1)C(=O)N[C@@H](CC(N)=O)C(=O)N[C@H](C(=O)N[C@@H](Cc1ccc(O)cc1)C(N)=O)[C@@H](C)O)C(C)C)[C@@H](C)O
notes: Synthetic acylated analogue of human amylin; also called compound 97

- Ratio rCT/rAmylin binding (rat calcitonin receptor [1]): 71.3
- Ratio hCT/hAmylin binding [2]: 63.4
- IC50 (rat calcitonin receptor [3]): 388 nM
- IC50 [4]: 5.45 nM
B4: N^ε1-[2-[2-[2-[[2-[2-[2-[[(4S)-4-carboxy-4-(19-carboxynonadecanoylamino)butanoyl]amino]ethoxy]ethoxy]acetyl]amino]ethoxy]ethoxy]acetyl]-[Arg17,Pro21,Pro27,Arg34 … (peptide)
peptide: K([AEEA-AEEA-γGlu-C20 diacid])CNTATCATQRLANFLRHSSPNFGAIPSSTNVGRNTY-NH2
modifications: disulfide 2-7; N-terminus assumed
SMILES: CC[C@H](C)[C@H](NC(=O)[C@H](C)NC(=O)CNC(=O)[C@H](Cc1ccccc1)NC(=O)[C@H](CC(N)=O)NC(=O)[C@@H]1CCCN1C(=O)[C@H](CO)NC(=O)[C@H](CO)NC(=O)[C@H](Cc1c[nH]cn1)NC(=O)[C@H](CCCNC(=N)N)NC(=O)[C@H](CC(C)C)NC(=O)[C@H](Cc1ccccc1)NC(=O)[C@H](CC(N)=O)NC(=O)[C@H](C)NC(=O)[C@H](CC(C)C)NC(=O)[C@H](CCCNC(=N)N)NC(=O)[C@H](CCC(N)=O)NC(=O)[C@@H](NC(=O)[C@H](C)NC(=O)[C@@H]1CSSC[C@H](NC(=O)[C@@H](N)CCCCNC(=O)COCCOCCNC(=O)COCCOCCNC(=O)CC[C@H](NC(=O)CCCCCCCCCCCCCCCCCCC(=O)O)C(=O)O)C(=O)N[C@@H](CC(N)=O)C(=O)N[C@@H]([C@@H](C)O)C(=O)N[C@@H](C)C(=O)N[C@@H]([C@@H](C)O)C(=O)N1)[C@@H](C)O)C(=O)N1CCC[C@H]1C(=O)N[C@@H](CO)C(=O)N[C@@H](CO)C(=O)N[C@H](C(=O)N[C@@H](CC(N)=O)C(=O)N[C@H](C(=O)NCC(=O)N[C@@H](CCCNC(=N)N)C(=O)N[C@@H](CC(N)=O)C(=O)N[C@H](C(=O)N[C@@H](Cc1ccc(O)cc1)C(N)=O)[C@@H](C)O)C(C)C)[C@@H](C)O
notes: Synthetic acylated analogue of human amylin; also called compound 95
